The target of one assay is monomeric gp120. As to the kind of experiment: FIG. 11; method not given.
Assay [1] deals with Cap45 154-177 glycopeptide with Man5GlcNAc2 at N156 and Man5GlcNAc2 at N160. As to the kind of experiment: SPR, Fab injected over biotinylated glycopeptide on a streptavidin chip. (In general: In SPR one partner is held on a chip, and binding of the other changes the refractive index at the surface.)
Assay [2] has as its target CAP45 154-177 glycopeptide with Man5GlcNAc2 at N160 only. The description is as above.
Assay [3] addresses ZM109 154-177 glycopeptide with Man5GlcNAc2 at N160 and Man5GlcNAc2 at N173. Described as above.
Assay [4] concerns the target ZM109 154-177 glycopeptide with Man5GlcNAc2 at N160 and a complex glycan at N173. The assay is described as above.
In assay [5] the target is CAP45 154-177 glycopeptide with Man5GlcNAc2 at N160 and a complex glycan at N156. Described as above.
The target in assay [6] is ZM109 154-177 glycopeptide with Man5GlcNAc2 at N160 only. The assay is described as above.
A further assay concerns the target Linked-Dimer Cap45. Nature of the assay: SPR, sensorgram box labelled PG9 Fab.
Assay [7] concerns the target 1FD6-ZM109 V1V2 scaffold.
In assay [8] the target is gp120 of HIV-1 strain 16055, full length (HIV-1). As to the kind of experiment: SPR, gp120 amine-coupled, Fab injected.
Assay [9] deals with gp120 of HIV-1 strain AD244, full length (HIV-1). Nature of the assay: SPR, gp120 amine-coupled, Fab injected.
The target in assay [10] is V3 loop-deleted gp120 of HIV-1 strain 16055 (HIV-1). As to the kind of experiment: SPR, gp120 amine-coupled, Fab injected.
The target of assay [11] is V3 loop-deleted gp120 of HIV-1 strain AD244 (HIV-1). Nature of the assay: SPR, gp120 amine-coupled, Fab injected.
In another assay the target is Linked-Dimer ZM109. As to the kind of experiment: SPR.
A further assay deals with Linked-Dimer A244. As to the kind of experiment: SPR, sensorgram box labelled Flowcell 2: PG9 Fab.
For assay [12], the target named is linked dimer of the gp120 V1/V2 domain with truncated V1 and V2 variable loops.
For assay [13], the target named is 1JO8-ZM109 V1V2 scaffold. Nature of the assay: SPR, scaffold immobilized, PG9 Fab injected.
Assay [14] deals with 1FD6-ZM109 V1V2 scaffold. As to the kind of experiment: SPR, scaffold immobilized, PG9 Fab injected.
Assay [15] has as its target 1JO8-ZM109 V1V2 scaffold. Nature of the assay: SPR, antigen amine-coupled, Fab injected, 1:1 Langmuir.
Assay [16] concerns the target gp120 of HIV-1 strain ZM109 (HIV-1). Described as above.
The target in assay [17] is V3 loop-deleted gp120 of HIV-1 strain 16055 (HIV-1). Nature of the assay: SPR, heterogeneous ligand model, component 2, 53.1%.
Assay [18] addresses V3 loop-deleted gp120 of HIV-1 strain AD244 (HIV-1). Nature of the assay: SPR, heterogeneous ligand model, component 2, 15.5%.
The target in assay [19] is gp120 of HIV-1 strain 16055, full length (HIV-1). Nature of the assay: SPR, heterogeneous ligand model, component 2, 34.0%.
The target is the same in assay [20]. As to the kind of experiment: SPR, heterogeneous ligand model, component 1, 66.0%.
Assay [21] addresses V3 loop-deleted gp120 of HIV-1 strain 16055 (HIV-1). Nature of the assay: SPR, heterogeneous ligand model, component 1, 46.9%.
Assay [22] deals with V3 loop-deleted gp120 of HIV-1 strain AD244 (HIV-1). Nature of the assay: SPR, heterogeneous ligand model, component 1, 84.5%.

pKd: −log10 of the molar value. “And” between values parts separate entries of the source, which are not always exact repeats. Equal values may be shown once.

As for “Hypersulfated PG9 Fab (co-expressed with TPST-1)”, the fold increase of affinity by sulfation in the assay with monomeric gp120 amounted to 10 fold.

PG9 Fab: the pKd in assay [1] is 4.35; in [2], 4.30; in assay [3], 4.01; in assay [4] it was 5.30; in assay [5], 5.24; in [6], 4.01. In addition, the pKd in the assay with Linked-Dimer Cap45 was 6.23; in the assay with 1FD6-ZM109 V1V2 scaffold [7] it was 5.40 and 5.25; in assay [8], 7.31; in [9], 7.36; in assay [10], 7.15; in assay [11] it was 6.99. Besides, the pKd in the assay with Linked-Dimer ZM109 is 5.79; in the assay with Linked-Dimer A244, 5.74; in [12], 5.77; with 1JO8-ZM109 V1V2 scaffold [15] it was 6.50; in assay [16] it was 7.01. The fold lower affinity than for wild-type ZM109 gp120 in the assay with 1JO8-ZM109 V1V2 scaffold [13] amounted to 3 fold; in the assay with 1FD6-ZM109 V1V2 scaffold [14], 50 fold. Moreover, the off-rate (koff) with 1JO8-ZM109 V1V2 scaffold [15] worked out at 0.00253 s⁻¹; in assay [16], 0.00285 s⁻¹. The figures for the kon (with 1JO8-ZM109 V1V2 scaffold [15]; in assay [16]) were 7960 M⁻¹ s⁻¹ and 29500 M⁻¹ s⁻¹, respectively.

For the substance PG16 Fab, the negative logarithm of the Kd (pKd) is 5.21 in assay [17]; 4.70 in assay [4]; 4.49 in [5]; 7.37 in assay [18]; 6.40 in assay [19]; 5.31 in assay [9]. The figures for the negative logarithm of the Kd (pKd) in assay [20], in assay [21] and in assay [22] were 6.43, 5.68 and 5.47, respectively.

As usually defined, the pKd is the Kd on a negative log10 scale, so that one unit is a factor of ten. Low readings indicate a high Kd, high ones a low Kd. As a reminder, the koff is the first-order rate constant of dissociation. One may read the kon as the second-order rate constant of association.

Values taken from patent US20140348865A1, “[…] ON AN HIV-1 V1V2 SITE-OF-VULNERABILITY” (The United States of America, as represented by the …, priority 2011, published 2014).
